Consider five molecules from US5196309A, “Characterization of platelet aggregation disorders” (The Scripps Research Institute, priority 1990, dated 1993).

The target in data set [1] is T1, GPIIb-IIIa on normal platelets (Homo sapiens, UniProt P05106+P08514).
T1 construct: Analysis of Platelet Surface GPIIb-IIIa by Flow Cytometry; from tissue; host or cells: platelets in platelet-rich plasma from venous blood of controls
The data set can be described thus: Flow cytometry of platelet surface GPIIb-IIIa, normal (control) platelets. It counts as binding. The procedure:
(§1) Samples were incubated without stirring in a total volume of 50 μL for 15 minutes at room temperature with agonists and peptides as indicated. Samples were then diluted to 0.5 mL with Tyrode's buffer and analyzed on a FACStar flow cytometer (Bectin-Dickinson Immunocytometry Systems, Mountain View, Calif.). Light scatter and fluorescence signals were acquired at logarithmic gain, and 10,000 platelets in each sample were analyzed. Results are expressed as mean platelet fluorescence intensity in arbitrary fluorescence units or as histograms of log platelet fluorescence intensity in arbitrary units on the abscissa and platelet number on the ordinate.
(In general: A flow cytometer gives signals particle by particle.)

For data set [2], the target named is T2, GPIIb-IIIa on Cam platelets (Homo sapiens, UniProt P05106+P08514, D145Y).
T2 construct: from tissue; host or cells: platelets in platelet-rich plasma from venous blood of two Cam variant siblings
Kind of data set: Flow cytometry of platelet surface GPIIb-IIIa, Cam variant thrombasthenia platelets. Type of data set: binding. An excerpt: FIGS. 2A through 2H show a flow cytometric analysis of the deficit in Cam variant of thrombasthenia. Shown are histograms with the log of fluorescence intensity on the abscissa and cell number on the ordinate. The reporting antibody is indicated in the left hand column. Cam platelets are shown in FIGS. 2A, 2C, 2E and 2G and the normal control in FIGS. 2B, 2D, 2F and 2H. Each column of figures contains a legend indicating the added agonist, peptide, or antibody. […] Similar data were obtained with other antibodies to GPIIb-IIIa (7E3, 10E5, 4F10) and an antibody to GPIIb (Tab). The Cam variant data shown are representative of determinations on two affected male siblings with identical results.
Based on the model depicted in FIG. 1, abnormal platelet aggregation can arise from a defect in the activation of platelet fibrinogen receptors, a defect in fibrinogen binding per se, or a defect in the postoccupancy events required for optimal aggregation. The potential usefulness of this model was tested by studying two patients with persistent and severe defects in platelet aggregation. To quantitate fibrinogen receptor activation and ligand binding, a fluorescein-labeled MoAb (PAC1) which specifically recognizes the activated form of GPIIb-IIIa, was employed (Shattil et al., J. Biol. Chem., 260:11107 (1985)). Antibody binding was measured in small (5 μL) samples of platelet rich plasma by flow cytometry.
Platelet rich plasma was obtained by taking venous blood from patients and controls who had not ingested medications for at least 10 days, anticoagulating with 1/10 volume of 3.8% sodium citrate, and sedimentating red and white blood cells at 180 g for 20 minutes at room temperature. Immediately thereafter, 5-μL aliquots of platelet-rich plasma were added to polypropylene tubes containing a fluorescein isothiocyanate-conjugated monoclonal antibody (10^-9 to 10^-6 mol/L) in Tyrode's buffer (1% bovine serum albumin, 2 mmol/L MgCl2, 137.5 mmol/L NaCl, 12 mmol/L NaHCO3, 2.6 mmol/L KCl, pH 7.4). Samples were incubated without stirring in a total volume of 50 μL for 15 minutes at room temperature with agonists and peptides as indicated. Samples were then diluted to 0.5 mL with Tyrode's buffer and analyzed on a FACStar flow cytometer (Bectin-Dickinson Immunocytometry Systems, Mountain View, Calif.). Light scatter and fluorescence signals were acquired at logarithmic gain, and 10,000 platelets in each sample were analyzed. Results are expressed as mean platelet fluorescence intensity in arbitrary fluorescence units or as histograms of log platelet fluorescence intensity in arbitrary units on the abscissa and platelet number on the ordinate.

The test system of another data set is Cam GPIIb-IIIa. Kind of data set: KYGRGDS affinity chromatography of surface-labeled platelet lysate, Cam platelets. It counts as binding, human. Particulars: Cam extract, 240 μg GPIIb-IIIa in starting extract; eluted with GRGDSP. How it is done: (§2) To directly examine the ligand binding function of Cam GPIIb-IIIa, extracts of ^125 I surface-labeledplatelets were subjected to affinity chromatography using an immobilized RGD peptide.
(§3) Platelets were isolated from acid-citrate dextrose anticoagulated human blood by differential centrifugation followed by gel filtration on Sepharose 2B (Ginsberg et al., Blood, 69:58 (1987)). Lysates of surface-labeled platelets were analyzed by KYGRGDS affinity chromatography as described by Lam et al., J. Biol. Chem., 262:947 (1987). Briefly, intact platelets were radioiodinated by the lactoperoxidase-H2 O2 method then resuspended to 2×10^8 platelets/mL and solubilized in lysis buffer containing 10 mmol/L N-2-hydroxyethylpiperazine-N'-2-ethanesulfonic acid (HEPES), pH 7.5, 0.15 mol/L NaCl, 1 mmol/L CaCl2, 1 mmol/L MgCl2, 0.1 mmol/L leupeptin, 1 mmol/L phenylmethanesulfonylfluoride (PMSF), 10 mmol/L N-ethylmaleimide, and 50 mmol/L octylglucoside. […] Under these conditions approximately 10% of normal GPIIb-IIIa is bound and eluted.
(§4) The GPIIb-IIIa content in the starting material and in the column fractions was quantitated by use of a polyclonal anti-GPIIb-IIIa antibody in an ELISA assay. The control extract contained 332 μg; the Cam individual contained 240 μg in the starting extract. The eluted fractions from the control extract contained 20 μg GPIIb-IIIa. […]

In another data set the test system is normal GPIIb-IIIa. Kind of data set: KYGRGDS affinity chromatography of surface-labeled platelet lysate, normal platelets. It counts as binding, human. The procedure: as §2, §3, §4
Data set [3] concerns platelets. The data set can be described thus: 125I-fibrinogen binding to platelets. Particulars: 10 uM ADP; 37 degrees, 30 minutes. The procedure:
Fibrinogen was isolated and labelled with ^125 I by standard methods as described by Marguerie et al., J. Biol. Chem., 255:154-161 (1980) to form ^125 I-Fg. Thereafter, the binding of ^125 I-Fg to platelets was assayed as described previously. Marguerie et al., J. Biol. Chem., 255:154-161 (1980). Binding was initiated by the admixture of a million resting platelets in the presence or absence of 10 micromolar adenosine diphosphate (ADP) to radiolabelled fibrinogen at varying concentrations from 0.01 to 1 nanomolar (nM) and incubation at 37 degrees for 30 minutes. Bound fibrinogen was separated from free fibrinogen by centrifugation of the platelet-fibrinogen admixture through 0.3 ml of 20% sucrose and the amount of radiolabelled fibrinogen associated with the cell pellet determined by gamma detection.

Data set [4] has as its system platelets. The conditions noted are these: cited from earlier work.
The subject of the next data set is GPIIb-IIIa. The conditions noted are these: cited from earlier work.
The test system of data set [5] is GPIIb-IIIa on MPD platelets. Kind of data set: Flow cytometry of platelet surface GPIIb-IIIa, myelofibrosis (MPD) patient platelets. It counts as binding, human. The procedure:
The disclosing antibody is indicated in the left hand column. In each column, the legend indicates the added agonist or peptide. Agonist and peptide concentrations were identical to those in FIGS. 2A-2H. Phorbol myristate acetate (PMA) was present in a final concentration of 50 nmol/L. Anti-TSP refers to the binding of a MoAb against thrombospondin.
as §1

Where no end group is shown, it is not given here.

Regarding LGGAKQAGDV [gamma(402-411)], the “anti-LIBS1 binding, fluorescence” value came out at 201 fluorescence U in data set [1] (control platelets with gamma(402-411) 400 μmol/L) and 31 U in data set [2] (Cam platelets with gamma(402-411) 400 μmol/L). Moreover, the “Change in anti-LIBS1 binding caused by gamma(402-411)” value in data set [2] (Cam platelets, gamma(402-411) 400 μmol/L) was “failed to increase”.
KYGRGDS [Lys-Tyr-Gly-Arg-Gly-Asp-Ser]: the “GPIIb-IIIa in eluted fractions (ELISA)” value in the data set on Cam GPIIb-IIIa turned out to be 2.6 µg; in the data set on normal GPIIb-IIIa (control extract, 332 μg GPIIb-IIIa in starting extract, eluted with GRGDSP), 20 µg. Moreover, the “Share of normal GPIIb-IIIa bound to KYGRGDS-Sepharose and eluted” value in the data set with normal GPIIb-IIIa (lysate 12 hours at 4° C., eluted with 1 mmol/L GRGDSP) is listed as “approximately 10%”.
For the molecule Gly-Arg-Gly-Asp-Ser-Pro [GRGDSP], the “Fluorescence Increase (LIBS-1 expression, anti-LIBS 1 binding), Normal” value in data set [1] ([GRGDSP] 2 μM, normal platelets) was 20; in data set [1] ([GRGDSP] 4 μM, normal platelets) it was 31; in data set [1] ([GRGDSP] 10 μM, normal platelets), 48; in data set [1] ([GRGDSP] 40 μM, normal platelets) it was 70; in data set [1] ([GRGDSP] 200 μM, normal platelets) it was 106. Besides, the “PMI-1 binding, mean fluorescence intensity” value in data set [1] (normal platelets treated with 200 μmol/L GRGDSP) turned out to be 151 fluorescence units; in data set [2] (Cam platelets treated with 200 μmol/L GRGDSP), 107 fluorescence units. Besides, the “anti-LIBS1 binding, mean fluorescence” value in data set [1] (normal platelets with GRGDSP 200 μmol/L) came to 205 U; in data set [2] (Cam platelets with GRGDSP 200 μmol/L), 25 U. Also, the “Increase in PMI-1 binding” value in data set [1] (normal platelets, 200 μmol/L GRGDSP) is recorded as 2.5 fold. In addition, the “Increase in anti-LIBS1 binding caused by peptide” value in data set [1] (normal platelets, GRGDSP 200 μmol/L) was “fourfold increase”. Moreover, in data set [2] (Cam platelets, 200 μmol/L GRGDSP), the “Change in PMI-1 binding in response to GRGDSP” value is “no increase”. The “Change in anti-LIBS1 binding caused by GRGDSP” value in data set [2] (Cam platelets, GRGDSP 200 μmol/L) is reported as “no increase”. The “Fluorescence Increase (LIBS-1 expression, anti-LIBS 1 binding), Cam” value in data set [2] ([GRGDSP] 2 μM, Cam platelets) is 3; in data set [2] ([GRGDSP] 4 μM, Cam platelets), 3; in data set [2] ([GRGDSP] 10 μM, Cam platelets), 3; in data set [2] ([GRGDSP] 40 μM, Cam platelets), 3; in data set [2] ([GRGDSP] 200 μM, Cam platelets), 6.
For `Nc1ncnc2c1ncn2[C@@H]1O[C@H](COP(=O)(O)OP(=O)(O)O)[C@@H](O)[C@H]1O` [ADP, adenosine diphosphate], the “Increase in number of 125I-Fg molecules bound to platelets” value in the data set with platelets [3] was “at least a three fold increase”.
As to PAC 1, the “PAC1 fluorescence of PMA-activated Cam platelets” value in data set [2] (50 nmol/L phorbol myristate acetate (PMA)) is reported as “no increase”. For the same molecule, in data set [2] (ADP 100 μmol/L), the “PAC1 binding to ADP-activated Cam platelets” value is given as “complete lack of binding”. Further, the “Fibrinogen Binding (effect of antibody on fibrinogen binding to platelets)” value in the data set with platelets [4] is “Decrease”. Also, the “Effect of Peptides (RGD or fibrinogen gamma chain C-terminal peptides) on antibody binding” value in the data set with GPIIb-IIIa is on record as “Decrease”. For the same molecule, the “Expression of PAC1 binding sites on stimulated MPD platelets” value in data set [5] (50 μmol/L epinephrine (not shown)) and in data set [5] (10 μm ADP) was “did not express PAC1 binding sites” each time. In addition, in data set [5] (PMA 50 nmol/L), the “PAC1 binding to MPD platelets in response to PMA” value is recorded as “bound”.
